Columns and labels:
actin filaments = actin filaments (UniProt P68135); test: co-sedimentation; actin co-sedimentation (pelleting) of rArp2/3 complex with actin filaments, as described in ref. 46
[1] = target: gelsolin-capped actin filaments (UniProt P68135); test: pointed end capping assay (elongation from gelsolin-capped actin filaments); gelsolin-capped actin filaments (100 nM), 4 µM actin with pyrene-labeled actin; slowing of pointed end elongation by rArp2/3 complex

Substance	Kd (actin filaments) [nM]	fold decrease in affinity against WT [1] [fold]
recombinant Arp2/3 complex with ARPC4 R105A and R106A mutations (from UniProt P61158 1-418; P61160 1-394; O15143 1-372; O15144 1-300; O15145 1-178; P59998 1-168; O15511 1-151)	1500	–
recombinant Arp2/3 complex with Arp2 T237A, T238A, and Y202A mutations (from UniProt P61158 1-418; P61160 1-394; O15143 1-372; O15144 1-300; O15145 1-178; P59998 1-168; O15511 1-151)	–	8

Source: article PMC3220268
